Laboratory results reported in patent US7101851 (dated 2006).
Bridges are numbered along the chain shown (N, C = ends). Where no end group is shown, it is not given here. [ ]: non-standard residue; d: D form. Ava = NCCCCC(=O)O

T1: alpha subunit of the human FcεRI receptor (IgE high affinity receptor), expressed on Chinese hamster ovary … (human, UniProt P12319 26-257)
T1 construct: whole, on cells; also called CHO FcεRI+ cells; FcεRIα
T1 sequence (looked up): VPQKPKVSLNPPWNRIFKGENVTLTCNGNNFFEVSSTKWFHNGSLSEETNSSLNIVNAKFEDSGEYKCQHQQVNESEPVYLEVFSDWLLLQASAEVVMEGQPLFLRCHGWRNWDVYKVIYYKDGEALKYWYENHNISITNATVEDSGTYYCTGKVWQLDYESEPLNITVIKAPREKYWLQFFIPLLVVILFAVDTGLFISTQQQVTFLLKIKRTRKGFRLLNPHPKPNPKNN

B1: IGE187 (peptide)
peptide: VQCPHFCYE[Ava]ELCPDVCYV-NH2
modifications: disulfide (positions not given here); not fully specified (bridges); printed as VQCPHFCYEavaELCPDVCYV-nh2
B2: IGE184 (peptide)
peptide: VQCPHFCYDYELCPDVCYV-NH2
modifications: disulfide 7-13, 3-17; N-terminus assumed
SMILES: CC(C)C[C@@H]1NC(=O)[C@H](CCC(=O)O)NC(=O)[C@H](Cc2ccc(O)cc2)NC(=O)[C@H](CC(=O)O)NC(=O)[C@H](Cc2ccc(O)cc2)NC(=O)[C@@H]2CSSC[C@H](NC1=O)C(=O)N1CCC[C@H]1C(=O)N[C@@H](CC(=O)O)C(=O)N[C@@H](C(C)C)C(=O)N[C@H](C(=O)N[C@@H](Cc1ccc(O)cc1)C(=O)N[C@H](C(N)=O)C(C)C)CSSC[C@H](NC(=O)[C@H](CCC(N)=O)NC(=O)[C@@H](N)C(C)C)C(=O)N1CCC[C@H]1C(=O)N[C@@H](Cc1c[nH]cn1)C(=O)N[C@@H](Cc1ccccc1)C(=O)N2
B3: IGE189 (peptide)
peptide: VQCPHFCYELDYEAGDERLCPDVCYV-NH2
modifications: disulfide (positions not given here); also: two disulfides, pairing not settled
B4: IGE188 (peptide)
peptide: VQCPHFCYELDYEADRLCPDVCYV-NH2
modifications: disulfide (positions not given here); also: two disulfides, pairing not settled
B5: IGE171 (peptide)
peptide: Ac-CPHFCYFGAELCPDVCY-NH2
modifications: not fully specified (bridges); cysteine pairing not given here
B6: IGE186 (peptide)
peptide: VQCPHFCYEL[Ava]ELCPDVCYV-NH2
modifications: disulfide 7-14, 3-18
B7: IGE179 (peptide)
peptide: Ac-VQCPHFCYELDYELCPDVCYV-NH2
modifications: not fully specified (bridges); cysteine pairing not given here
B8: IGE182 (peptide)
peptide: VQCPHFCYELFSRLCPDVCYV-NH2
modifications: disulfide (positions not given here); also: two disulfides, pairing not settled
B9: IGE183 (peptide)
peptide: VQCPHFCYDASRLCPDVCYV-NH2
modifications: disulfide (positions not given here); not fully specified (bridges); printed as VQCPHFCYDASRLCPDVCYV-nh2
B10: IGE197 (peptide)
peptide: VQCPDFCYDASRLCPDVCYV-NH2
modifications: disulfide 7-14, 3-18; N-terminus assumed
SMILES: CC(C)C[C@@H]1NC(=O)[C@H](CCCNC(=N)N)NC(=O)[C@H](CO)NC(=O)[C@H](C)NC(=O)[C@H](CC(=O)O)NC(=O)[C@H](Cc2ccc(O)cc2)NC(=O)[C@@H]2CSSC[C@H](NC1=O)C(=O)N1CCC[C@H]1C(=O)N[C@@H](CC(=O)O)C(=O)N[C@@H](C(C)C)C(=O)N[C@H](C(=O)N[C@@H](Cc1ccc(O)cc1)C(=O)N[C@H](C(N)=O)C(C)C)CSSC[C@H](NC(=O)[C@H](CCC(N)=O)NC(=O)[C@@H](N)C(C)C)C(=O)N1CCC[C@H]1C(=O)N[C@@H](CC(=O)O)C(=O)N[C@@H](Cc1ccccc1)C(=O)N2
B11: IGE196 (peptide)
peptide: VQCPHFCYDASELCPDVCYV-NH2
modifications: disulfide (positions not given here); not fully specified (bridges); printed as VQCPHFCYDASELCPDVCYV-nh2
B12: IGE168 (peptide)
peptide: Ac-VQCPHFCYFGAELCPDVCYV-NH2
modifications: disulfide 7-14, 3-18
SMILES: CC(=O)N[C@H](C(=O)N[C@@H](CCC(N)=O)C(=O)N[C@H]1CSSC[C@@H](C(=O)N[C@@H](Cc2ccc(O)cc2)C(=O)N[C@H](C(N)=O)C(C)C)NC(=O)[C@H](C(C)C)NC(=O)[C@H](CC(=O)O)NC(=O)[C@@H]2CCCN2C(=O)[C@@H]2CSSC[C@H](NC(=O)[C@H](Cc3ccccc3)NC(=O)[C@H](Cc3c[nH]cn3)NC(=O)[C@@H]3CCCN3C1=O)C(=O)N[C@@H](Cc1ccc(O)cc1)C(=O)N[C@@H](Cc1ccccc1)C(=O)NCC(=O)N[C@@H](C)C(=O)N[C@@H](CCC(=O)O)C(=O)N[C@@H](CC(C)C)C(=O)N2)C(C)C
B13: IGE185 (peptide)
peptide: VQCPHFCYAEPLCPDVCYV-NH2
modifications: disulfide 7-13, 3-17; N-terminus assumed
SMILES: CC(C)C[C@@H]1NC(=O)[C@@H]2CCCN2C(=O)[C@H](CCC(=O)O)NC(=O)[C@H](C)NC(=O)[C@H](Cc2ccc(O)cc2)NC(=O)[C@@H]2CSSC[C@H](NC1=O)C(=O)N1CCC[C@H]1C(=O)N[C@@H](CC(=O)O)C(=O)N[C@@H](C(C)C)C(=O)N[C@H](C(=O)N[C@@H](Cc1ccc(O)cc1)C(=O)N[C@H](C(N)=O)C(C)C)CSSC[C@H](NC(=O)[C@H](CCC(N)=O)NC(=O)[C@@H](N)C(C)C)C(=O)N1CCC[C@H]1C(=O)N[C@@H](Cc1c[nH]cn1)C(=O)N[C@@H](Cc1ccccc1)C(=O)N2
B14: IGE170 (peptide)
peptide: CPHFCYFGAELCPDVCY-NH2
modifications: not fully specified (bridges); cysteine pairing not given here
B15: IGE199 (peptide)
peptide: VQCPDFCY[Ava]LCPDVCYV-NH2
modifications: disulfide (positions not given here); not fully specified (bridges); printed as VQCPDFCYavaLCPDVCYV-nh2
B16: IGE198 (peptide)
peptide: VQCPHFCY[Ava]LCPDVCYV-NH2
modifications: disulfide (positions not given here); not fully specified (bridges); printed as VQCPHFCYavaLCPDVCYV-nh2
B17: IGE167 (peptide)
peptide: VQCPHFCYFGAELCPDVCYV-NH2
modifications: disulfide 7-14, 3-18; N-terminus assumed
SMILES: CC(C)C[C@@H]1NC(=O)[C@H](CCC(=O)O)NC(=O)[C@H](C)NC(=O)CNC(=O)[C@H](Cc2ccccc2)NC(=O)[C@H](Cc2ccc(O)cc2)NC(=O)[C@@H]2CSSC[C@H](NC1=O)C(=O)N1CCC[C@H]1C(=O)N[C@@H](CC(=O)O)C(=O)N[C@@H](C(C)C)C(=O)N[C@H](C(=O)N[C@@H](Cc1ccc(O)cc1)C(=O)N[C@H](C(N)=O)C(C)C)CSSC[C@H](NC(=O)[C@H](CCC(N)=O)NC(=O)[C@@H](N)C(C)C)C(=O)N1CCC[C@H]1C(=O)N[C@@H](Cc1c[nH]cn1)C(=O)N[C@@H](Cc1ccccc1)C(=O)N2

The binders below were run against T1, alpha subunit of the human FcεRI … (assay: inhibition of 125I-IgE binding to CHO cells expressing human FcεRI alpha; competitor IgE).
Protocol: To determine the ability of peptides to inhibit IgE binding to FcεRI, a cell-based binding assay was used with radiolabeled IgE. Chinese hamster ovary cells expressing the alpha subunit of the human FcεRI receptor were cultured overnight in Falcon 96 well microtiter plates at a concentration of 5 ×10^4 cells per well. The following day the cells were rinsed three times with PBS and then once with F12/DMEM. Peptide stocks were reconstituted in 100 mM Hepes buffered water, pH 7.2, at a concentration of 5 mg/mL. Working concentrations of the peptide were diluted in assay buffer (see below). 75 uL of a desired concentration of peptide was added to the top row of a separate 96 well microtiter plate and serially diluted 1:3 in 50 uL of the assay buffer (F12/DMEM, 1% BSA, 0.05% NaN_3 and 0.025 mM Hepes pH 7.2). Starting concentrations ranged from 50–500 uM. Next, 50 uL of the diluted peptide was transferred to the 96 microtiter well plate containing a monolayer of CHO FcεRI+ cells. […] Cells were […]
In the case of B1, the IC50 is reported as 90 nM. Binder B2 has an IC50 of 110 nM. With B3 the IC50 was 150 nM. For B4, the IC50 was 980 nM. Binder B5 has an IC50 of 290 nM. B6 showed an IC50 of 180 nM. B7 gave an IC50 of 220 nM. Work on B8 yielded an IC50 of 80 nM. Work on B9 yielded an IC50 of 30 nM. Work on B10 yielded an IC50 of 120 nM. B11 showed an IC50 of 90 nM. Work on B12 yielded an IC50 of 260 nM. Binder B13 has an IC50 of 76 nM. B14 showed an IC50 of 200 nM. For B15, the IC50 was 6670 nM. Binder B16 has an IC50 of 7800 nM. B17 gave an IC50 of 120 nM.
